# System: Escherichia coli TOP10
# Experiment: shrunken log2 fold change of peptide-encoding DNA abundance (4.5 h post-induction vs induction); higher = less antimicrobial activity (less host growth inhibition)
# Conditions: time post-induction: 4.5 h; library: site-saturation at positions 5, 18, 19, 20
# 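Note: peptides expressed intracellularly from a pBAD plasmid library in pooled LB shake-flask culture, induced with 0.3% L-arabinose, DNA abundance read by NGS, three biological replicates, DESeq2 with apeglm shrinkage.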
row,Sequence,shrunken log2 fold change
1,RRIRMRPPRLPRPRPRPNAKPRP,0.225
2,RRIRDRPPRLPRPRPRPTMPPRP,-0.121
3,RRIRCRPPRLPRPRPRPYQIPRP,-0.852
4,RRIRIRPPRLPRPRPRPIMTPRP,-0.26
5,RRIRTRPPRLPRPRPRPAIYPRP,-0.372
6,RRIRDRPPRLPRPRPRPHFYPRP,-0.321
7,RRIRQRPPRLPRPRPRPRRCPRP,0.271
8,RRIRLRPPRLPRPRPRPVDTPRP,-0.142
9,RRIRDRPPRLPRPRPRPFWEPRP,0.272
10,RRIRCRPPRLPRPRPRPDTIPRP,-0.738
11,RRIRYRPPRLPRPRPRPIPRPRP,0.0268
12,RRIRPRPPRLPRPRPRPYHDPRP,-0.0378
13,RRIRRRPPRLPRPRPRPKNSPRP,-0.0537
14,RRIRCRPPRLPRPRPRPIVHPRP,-0.7
15,RRIRTRPPRLPRPRPRPWNCPRP,-0.214
16,RRIRFRPPRLPRPRPRPVSFPRP,-0.414
17,RRIRWRPPRLPRPRPRPNILPRP,-0.402
18,RRIRQRPPRLPRPRPRPNKYPRP,-0.686
19,RRIRGRPPRLPRPRPRPHMKPRP,0.103
20,RRIRTRPPRLPRPRPRPQFNPRP,-0.226
21,RRIRVRPPRLPRPRPRPRCFPRP,0.05
22,RRIRQRPPRLPRPRPRPHQHPRP,-0.309
23,RRIRARPPRLPRPRPRPAEPPRP,0.443
24,RRIRRRPPRLPRPRPRPWYSPRP,-0.0705
25,RRIRNRPPRLPRPRPRPLYQPRP,-0.357

row,Sequence,shrunken log2 fold change
1,RRIRWRPPRLPRPRPRPTGWPRP,0.594
2,RRIRLRPPRLPRPRPRPIHPPRP,-0.168
3,RRIRCRPPRLPRPRPRPQWEPRP,0.0667
4,RRIRERPPRLPRPRPRPLLKPRP,-0.439
5,RRIRFRPPRLPRPRPRPVGAPRP,0.472
6,RRIRARPPRLPRPRPRPNSEPRP,0.0883
7,RRIRGRPPRLPRPRPRPFPFPRP,-0.0622
8,RRIRGRPPRLPRPRPRPWSLPRP,0.094
9,RRIRFRPPRLPRPRPRPLQRPRP,0.071
10,RRIRLRPPRLPRPRPRPITIPRP,0.0213
11,RRIRRRPPRLPRPRPRPDWHPRP,-0.0494
12,RRIRRRPPRLPRPRPRPNENPRP,0.256
13,RRIRNRPPRLPRPRPRPDWWPRP,0.304
14,RRIRNRPPRLPRPRPRPLAVPRP,0.0686
15,RRIRSRPPRLPRPRPRPLPWPRP,0.21
16,RRIRNRPPRLPRPRPRPSNGPRP,-0.12
17,RRIRSRPPRLPRPRPRPCWSPRP,0.0886
18,RRIRRRPPRLPRPRPRPENFPRP,-0.0287
19,RRIRIRPPRLPRPRPRPWGQPRP,-0.00987
20,RRIRMRPPRLPRPRPRPVVWPRP,1.57
21,RRIRVRPPRLPRPRPRPLPCPRP,-0.12
22,RRIRDRPPRLPRPRPRPAKAPRP,0.0972
23,RRIRRRPPRLPRPRPRPCFPPRP,0.592
24,RRIRCRPPRLPRPRPRPWCPPRP,-0.281
25,RRIRERPPRLPRPRPRPDWDPRP,-0.248

row,Sequence,shrunken log2 fold change
1,RRIRLRPPRLPRPRPRPFCIPRP,-0.22
2,RRIRERPPRLPRPRPRPPIVPRP,-0.302
3,RRIRARPPRLPRPRPRPPGKPRP,0.188
4,RRIRIRPPRLPRPRPRPQIKPRP,-0.853
5,RRIRIRPPRLPRPRPRPGCCPRP,-0.04
6,RRIRTRPPRLPRPRPRPVYWPRP,-0.103
7,RRIRIRPPRLPRPRPRPYSAPRP,-0.221
8,RRIRFRPPRLPRPRPRPFSYPRP,-0.777
9,RRIRCRPPRLPRPRPRPGNYPRP,-0.516
10,RRIRARPPRLPRPRPRPYDIPRP,0.00126
11,RRIRARPPRLPRPRPRPFQSPRP,0.105
12,RRIRPRPPRLPRPRPRPGQYPRP,0.0431
13,RRIRNRPPRLPRPRPRPMSRPRP,-0.094
14,RRIRCRPPRLPRPRPRPGPEPRP,0.473
15,RRIRVRPPRLPRPRPRPINIPRP,-0.347
16,RRIRDRPPRLPRPRPRPPSEPRP,0.459
17,RRIRFRPPRLPRPRPRPCRYPRP,-0.0124
18,RRIRNRPPRLPRPRPRPICTPRP,-0.122
19,RRIRQRPPRLPRPRPRPRKPPRP,0.0318
20,RRIRHRPPRLPRPRPRPVSMPRP,-0.0784
21,RRIRVRPPRLPRPRPRPMKYPRP,-0.0836
22,RRIRIRPPRLPRPRPRPDTLPRP,-0.658
23,RRIRKRPPRLPRPRPRPESMPRP,0.603
24,RRIRTRPPRLPRPRPRPKTRPRP,0.221
25,RRIRHRPPRLPRPRPRPGTPPRP,0.104

row,Sequence,shrunken log2 fold change
1,RRIRERPPRLPRPRPRPWMIPRP,-0.616
2,RRIRFRPPRLPRPRPRPKEEPRP,0.0372
3,RRIRRRPPRLPRPRPRPKGGPRP,0.183
4,RRIRQRPPRLPRPRPRPVEGPRP,0.294
5,RRIRHRPPRLPRPRPRPDPYPRP,-0.126
6,RRIRSRPPRLPRPRPRPNAFPRP,-0.0168
7,RRIRWRPPRLPRPRPRPAEMPRP,0.213
8,RRIRARPPRLPRPRPRPWYPPRP,-0.11
9,RRIRTRPPRLPRPRPRPICCPRP,0.0718
10,RRIRCRPPRLPRPRPRPMCQPRP,-0.0371
11,RRIRHRPPRLPRPRPRPSEFPRP,-0.477
12,RRIRTRPPRLPRPRPRPPQAPRP,0.121
13,RRIRYRPPRLPRPRPRPHYCPRP,-0.403
14,RRIRWRPPRLPRPRPRPERKPRP,-0.0287
15,RRIRSRPPRLPRPRPRPNASPRP,0.233
16,RRIRCRPPRLPRPRPRPVLYPRP,-0.432
17,RRIRCRPPRLPRPRPRPEKDPRP,-0.0681
18,RRIRIRPPRLPRPRPRPKRNPRP,-0.0625
19,RRIRPRPPRLPRPRPRPDLVPRP,-0.0293
20,RRIRRRPPRLPRPRPRPWGSPRP,-0.186
21,RRIRDRPPRLPRPRPRPQPSPRP,0.234
22,RRIRCRPPRLPRPRPRPRQPPRP,0.249
23,RRIRRRPPRLPRPRPRPFEKPRP,-0.0125
24,RRIRKRPPRLPRPRPRPNTNPRP,-0.0445
25,RRIRYRPPRLPRPRPRPIKRPRP,-0.767

row,Sequence,shrunken log2 fold change
1,RRIRFRPPRLPRPRPRPSSGPRP,-0.0411
2,RRIRRRPPRLPRPRPRPRDDPRP,0.14
3,RRIRSRPPRLPRPRPRPFYCPRP,-0.14
4,RRIRARPPRLPRPRPRPKLWPRP,1
5,RRIRSRPPRLPRPRPRPWDNPRP,0.0157
6,RRIRGRPPRLPRPRPRPGEYPRP,0.3
7,RRIRLRPPRLPRPRPRPWHDPRP,-0.205
8,RRIRHRPPRLPRPRPRPGFQPRP,-0.0167
9,RRIRGRPPRLPRPRPRPRDGPRP,1.27
10,RRIRWRPPRLPRPRPRPMPHPRP,0.323
11,RRIRWRPPRLPRPRPRPFNWPRP,-0.0369
12,RRIRDRPPRLPRPRPRPMSMPRP,0.017
13,RRIRKRPPRLPRPRPRPNKWPRP,-0.0156
14,RRIRNRPPRLPRPRPRPCHFPRP,-0.166
15,RRIRFRPPRLPRPRPRPYNVPRP,-0.138
16,RRIRERPPRLPRPRPRPMVLPRP,0.104
17,RRIRGRPPRLPRPRPRPCVAPRP,1.1
18,RRIRWRPPRLPRPRPRPWPRPRP,0.223
19,RRIRWRPPRLPRPRPRPFDDPRP,-0.121
20,RRIRFRPPRLPRPRPRPNTVPRP,-0.363
21,RRIRSRPPRLPRPRPRPWKRPRP,-0.000813
22,RRIRGRPPRLPRPRPRPGGDPRP,0.937
23,RRIRGRPPRLPRPRPRPTIKPRP,0.48
24,RRIRSRPPRLPRPRPRPLFWPRP,0.132
25,RRIRDRPPRLPRPRPRPAQLPRP,-0.0667

row,Sequence,shrunken log2 fold change
1,RRIRIRPPRLPRPRPRPPVIPRP,-0.108
2,RRIRLRPPRLPRPRPRPSMRPRP,0.421
3,RRIRERPPRLPRPRPRPVNKPRP,-0.31
4,RRIRIRPPRLPRPRPRPSSSPRP,0.148
5,RRIRYRPPRLPRPRPRPDITPRP,-0.385
6,RRIRNRPPRLPRPRPRPWQRPRP,-0.0153
7,RRIRERPPRLPRPRPRPMPVPRP,-0.107
8,RRIRRRPPRLPRPRPRPYQKPRP,-0.458
9,RRIRVRPPRLPRPRPRPMDHPRP,-0.426
10,RRIRDRPPRLPRPRPRPSWYPRP,0.0397
11,RRIRRRPPRLPRPRPRPNHWPRP,0.0169
12,RRIRQRPPRLPRPRPRPTYEPRP,-0.0761
13,RRIRMRPPRLPRPRPRPYWGPRP,-0.0296
14,RRIRCRPPRLPRPRPRPDDQPRP,0.23
15,RRIRHRPPRLPRPRPRPDSKPRP,-0.362
16,RRIRCRPPRLPRPRPRPCVAPRP,0.178
17,RRIRDRPPRLPRPRPRPMSRPRP,-0.107
18,RRIRERPPRLPRPRPRPDTHPRP,-0.532
19,RRIRYRPPRLPRPRPRPAKWPRP,0.0339
20,RRIRNRPPRLPRPRPRPTRFPRP,0.3
21,RRIRVRPPRLPRPRPRPKYNPRP,-0.658
22,RRIRKRPPRLPRPRPRPSPPPRP,0.305
23,RRIRQRPPRLPRPRPRPQIRPRP,-0.307
24,RRIRERPPRLPRPRPRPCMCPRP,-1.03
25,RRIRTRPPRLPRPRPRPWHNPRP,-0.0242

# Source: the supplement of paper PMC9112550, “Optimization of the antimicrobial peptide Bac7 by deep mutational scanning” (BMC Biology, 2022)
